Experimental data taken from the RNAGym collection of RNA variant scans (doi:10.7554/elife.80360).

B1: HDV Ribozyme (parent)
chain: GGCCGGCAUGGUCCCAGCCUCCUCGCUGGCGCCGGCUGGGCAACAUUCCGAGGGGACCGUCCCCUCGGUAAUGGCGAAUGGGACCCA

Variants of: B1
Experiment: self-cleavage, relative activity (ratio to wild type); higher = more cleavage; co-transcriptional

| Variant | self-cleavage |
| --- | --- |
| C4A C14G | 0.175 |
| G11A U46G | 0.128 |
| C49G C66A | 0.773 |
| G31U G59U | 0.617 |
| C62U G73C | 0.354 |
| C4G A16G | 0.453 |
| G10A U37C | 0.695 |
| C21A G40U | 0.134 |
| U27C C84U | 0.65 |
| G31A A70C | 0.407 |
| G53A A70G | 1.07 |
| G29C A70U | 0.0811 |
| C21G C49U | 0 |
| U60C A78U | 0.229 |
| G34C G50A | 0.287 |
| G35C U69A | 0.443 |
| U65C G73C | 0.283 |
| G67U A70G | 1.16 |
| U37A G74A | 0.166 |
| G29A C48G | 0.0875 |
| C63G A77C | 0.58 |
| C58G C75A | 0.196 |
| G1U U23G | 0.277 |
| C18G C36U | 0.0852 |

| Variant | self-cleavage |
| --- | --- |
| C18U C75G | 0.133 |
| C36U C84A | 0.489 |
| G17A U69C | 0.786 |
| C19A G38U | 0.0346 |
| G6C C86U | 0.403 |
| G67A G81U | 0.101 |
| G25U G39U | 0.0302 |
| G40A G81U | 0.342 |
| G17C G82A | 0.147 |
| G50A C66A | 1.18 |
| C85A A87C | 0.862 |
| G5A G53C | 0.302 |
| C22A C26G | 0.119 |
| A16U G28U | 0.222 |
| C24A C33G | 0.142 |
| C30U C63G | 0.47 |
| C19U G35C | 0.0831 |
| A56C A78U | 0.499 |
| G34A G68U | 0.171 |
| G29C G73A | 0.0707 |
| U20C G29C | 0.231 |
| C61U G73U | 0.383 |
| G76U A87U | 1.04 |
| C7U A71C | 0.322 |

| Variant | self-cleavage |
| --- | --- |
| U12C A51U | 0.359 |
| A70G G82A | 0.394 |
| G5A A8U | 0.151 |
| C26G C64U | 0.99 |
| U27A G31C | 0.378 |
| C41A G50U | 0.886 |
| A8G C19A | 0.107 |
| G39U A42G | 0.249 |
| G11U U65G | 0.542 |
| U12A A45C | 0 |
| C22G U47C | 0.18 |
| U46C A71G | 1.2 |
| U27C A43C | 0.172 |
| G50C C85A | 0.933 |
| G17U C66U | 0.469 |
| G38C G53U | 0.266 |
| C24A C41U | 0.354 |
| U20G C26G | 0.196 |
| A16G U37G | 0.119 |
| A56U C86A | 1.01 |
| U9G C84G | 0.222 |
| U23C G25C | 0.138 |
| U9C U65A | 1.25 |
| C48A G67A | 1.04 |

| Variant | self-cleavage |
| --- | --- |
| U79A A87C | 0.849 |
| U20A G82U | 0.0875 |
| C32A G54A | 0.212 |
| G6C C84G | 0.138 |
| A56C A87C | 1.04 |
| U23A G34U | 0.149 |
| C44G A51U | 0.591 |
| G10C C21G | 0.032 |
| G25A G59C | 0.332 |
| G11C A77U | 0.0462 |
| C14G G34C | 0.138 |
| C62G A71U | 0.489 |
| G35U C84U | 0.343 |
| C18U G35U | 0.0791 |
| G52A G80U | 0.262 |
| C61G A70G | 0.844 |
| G28U C85G | 0.108 |
| G35A A42G | 0.17 |
| G2C U27C | 0.0496 |
| C3U C85G | 0.87 |
| U20G U27C | 0 |
| G54A G73U | 0.211 |
| C4U U69A | 0.623 |
| A70G G76U | 0.997 |

| Variant | self-cleavage |
| --- | --- |
| C49G G76C | 0.982 |
| C30G G31U | 0.126 |
| G31U C36A | 0.106 |
| G25U A70U | 0.0852 |
| U20G G50C | 0.138 |
| C21A C26G | 0.266 |
| C30U C33U | 0.369 |
| U65A C84A | 0.769 |
| G29U C86A | 0.169 |
| C44U G54A | 0.872 |
| C19U U65C | 0.154 |
| G6A G68C | 0.604 |
| G35U G40C | 0.136 |
| A51C C58A | 0.779 |
| A16G A51U | 0.906 |
| U23G G35A | 0.324 |
| C57A U79C | 0.429 |
| C49U G68C | 0.784 |
| G31U A70U | 0.365 |
| G25U U46G | 0.199 |
| C30U G40A | 0.645 |
| C21U C57G | 0.196 |
| G11C U37G | 0.101 |
| C64A A70U | 0.752 |

| Variant | self-cleavage |
| --- | --- |
| G25C G29A | 0.155 |
| C26A C48U | 0.941 |
| G17U A42C | 0.125 |
| U20G A83U | 0.0554 |
| G39C C44A | 0.271 |
| C14A C44G | 0.346 |
| C36A G52A | 0.158 |
| G50U G81C | 0.479 |
| C48G G68A | 0.723 |
| U23G C62A | 0.712 |
| U9G C61G | 1.02 |
| G74C C86U | 0.189 |
| G10U G38C | 0.058 |
| C18G G67C | 0.203 |
| G10U C21G | 0 |
| G52U G67A | 0.265 |
| G11C G38C | 0.0755 |
| U20G C85G | 0.158 |
| A16C C85G | 0.95 |
| A43G A71G | 0.68 |
| U27G C33A | 0.185 |
| U27G C33U | 0.935 |
| C61U C62A | 0.978 |
| U12C U65C | 0.492 |

| Variant | self-cleavage |
| --- | --- |
| A56G G68A | 0.96 |
| U12C C24A | 0.232 |
| U12C C24G | 0.119 |
| A70C C84U | 0.594 |
| U47G A77U | 0.665 |
| A71C C75G | 0.131 |
| C14U G73C | 0.252 |
| C64U C85A | 1.25 |
| G59U U65A | 0.912 |
| G76U C84U | 1.11 |
| C18A C24G | 0.107 |
| G80U C86A | 0.239 |
| U23C C48A | 1.12 |
| A8G G38C | 0.138 |
| U65C A87G | 0.94 |
| C57A C86A | 0.986 |
| G28U G38A | 0.0863 |
| A51U G73A | 0.607 |
| U27C U47C | 0.511 |
| G6C G52A | 0.369 |
| C41G A42U | 0.886 |
| C7G G68C | 0.0504 |
| G40C A56U | 0.381 |
